Results: US20080206230A1 (INSTITUT PASTEUR, published 2008)

Target: T1, rat NEP ecto-endopeptidase (renal tissue) (rat, UniProt P07861 2-750)
T1 sequence (looked up): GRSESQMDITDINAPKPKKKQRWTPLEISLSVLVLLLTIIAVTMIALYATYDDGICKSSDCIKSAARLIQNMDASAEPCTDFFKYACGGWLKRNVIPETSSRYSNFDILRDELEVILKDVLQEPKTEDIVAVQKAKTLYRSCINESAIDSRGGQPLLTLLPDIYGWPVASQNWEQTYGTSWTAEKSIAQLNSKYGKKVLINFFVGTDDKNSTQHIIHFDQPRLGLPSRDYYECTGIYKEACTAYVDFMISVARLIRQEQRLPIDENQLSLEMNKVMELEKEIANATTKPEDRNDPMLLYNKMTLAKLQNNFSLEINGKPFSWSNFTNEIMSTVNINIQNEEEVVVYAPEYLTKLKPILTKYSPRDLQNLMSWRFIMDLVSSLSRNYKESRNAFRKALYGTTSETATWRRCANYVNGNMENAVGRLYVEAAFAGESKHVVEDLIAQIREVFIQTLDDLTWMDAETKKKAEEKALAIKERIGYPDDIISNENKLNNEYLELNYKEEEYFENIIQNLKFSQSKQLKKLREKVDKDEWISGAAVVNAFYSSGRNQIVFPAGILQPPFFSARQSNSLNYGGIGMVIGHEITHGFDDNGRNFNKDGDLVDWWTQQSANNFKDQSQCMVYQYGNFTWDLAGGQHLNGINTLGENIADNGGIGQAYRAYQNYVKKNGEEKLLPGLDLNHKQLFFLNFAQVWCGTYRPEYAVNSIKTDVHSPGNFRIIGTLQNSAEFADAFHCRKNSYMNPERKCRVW
Test: cell-based or functional assay

inhibitory efficiency towards rat renal NEP relative to human cell surface NEP (LNCaP): ≥ 10 fold lower
Binder: QRFSR [QRFSR peptide]
